Experimental findings from article PMC12409452 are described below.

The assay concerns the target mitochondrial electron transport chain complex III2 (UniProt P22695). The experiment in a line: BN-PAGE immunoblot (Ndufb8), band quantification. As to conditions: A549 cells transfected with Ndufs1 plasmid; respirasome band CIn+CIIIn+CIVn normalised to free CI band; n = 3, mean ± SD; parent: est. 0.04; read off a plot. (In general: In western blotting, separated proteins are transferred to a membrane and probed.)
Sequence of UniProt P22695 (P22695 whole entry, looked up, one chain of several): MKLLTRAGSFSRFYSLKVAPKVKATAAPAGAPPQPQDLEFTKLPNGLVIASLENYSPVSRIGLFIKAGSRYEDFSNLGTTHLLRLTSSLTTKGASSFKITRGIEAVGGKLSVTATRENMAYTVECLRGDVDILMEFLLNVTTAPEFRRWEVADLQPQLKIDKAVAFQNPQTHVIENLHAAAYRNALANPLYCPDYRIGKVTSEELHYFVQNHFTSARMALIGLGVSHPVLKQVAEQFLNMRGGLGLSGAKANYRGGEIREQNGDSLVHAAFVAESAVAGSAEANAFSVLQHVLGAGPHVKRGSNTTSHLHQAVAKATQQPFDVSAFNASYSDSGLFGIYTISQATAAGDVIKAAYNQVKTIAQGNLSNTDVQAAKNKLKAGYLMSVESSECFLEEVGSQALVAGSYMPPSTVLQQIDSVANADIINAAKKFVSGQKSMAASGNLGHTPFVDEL
Consider “mitochondrial electron transport chain complex I with wild-type Ndufs1 (from UniProt P28331;O95169) C64D”, for which the other: Relative Respirasome level (vs CI) is 1.9. “mitochondrial electron transport chain complex I with wild-type Ndufs1 (from UniProt P28331;O95169) C75D”: the other: Relative Respirasome level (vs CI) is 1.9. On to “mitochondrial electron transport chain complex I with wild-type Ndufs1 (from UniProt P28331;O95169) C78D”, for which the other: Relative Respirasome level (vs CI) is 1.4. As for “mitochondrial electron transport chain complex I with wild-type Ndufs1 (from UniProt P28331;O95169) C92D”, the other: Relative Respirasome level (vs CI) was found to be 1.5. The same measure for “mitochondrial electron transport chain complex I with wild-type Ndufs1 (from UniProt P28331;O95169) C367D”: 0.15. As to “mitochondrial electron transport chain complex I with wild-type Ndufs1 (from UniProt P28331;O95169) C554D”, the other: Relative Respirasome level (vs CI) came out at 1.1. Then “mitochondrial electron transport chain complex I with wild-type Ndufs1 (from UniProt P28331;O95169) C564D”, with 1.2; and “mitochondrial electron transport chain complex I with wild-type Ndufs1 (from UniProt P28331;O95169) C727D”, with 1.
